From US20260209339A1 (RADIANT BIOTHERAPEUTICS, published 2026) come the findings set out here.

Where two headings read alike, the source gives them in different places.

Test [1] concerns the target interleukin-6 (IL-6) (UniProt P05231). Description: cell-based or functional assay.
For test [2] the target is unchanged. Description: BLI (Octet), IL-6 immobilized on the biosensor. In general terms: In BLI a coated tip is dipped into the sample, and binding shifts an interference pattern.
The target is the same in test [3]. Put plainly: ELISA on IL-6. (In an ELISA, binding on a coated surface is turned into a signal by an enzyme label.)
The target in test [4] is T1, interleukin-11 (IL-11) (UniProt P20809).
T1 sequence (looked up): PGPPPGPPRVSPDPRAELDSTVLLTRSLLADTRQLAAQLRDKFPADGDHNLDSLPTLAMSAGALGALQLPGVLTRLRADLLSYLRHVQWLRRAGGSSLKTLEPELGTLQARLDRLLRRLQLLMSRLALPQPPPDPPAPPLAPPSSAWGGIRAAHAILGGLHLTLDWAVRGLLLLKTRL
Description: ELISA on IL-11.

The target of test [5] is T1, interleukin-11 (IL-11). Put plainly: cell-based or functional assay.
Test [6] deals with T2, interleukin-11 (IL-11) (UniProt P20809 22-199, limits assumed).
T2 sequence (looked up): T1 sequence (looked up)
Put plainly: cell-based or functional assay.

Test [7] deals with T2, interleukin-11 (IL-11). Description: ELISA on IL-11.
Description: Binding of anti-IL-11 Multabodies to IL-11 was assessed using an enzyme-linked immunosorbent assay (ELISA).
The target in test [8] is T3, interleukin-6 (IL-6) (UniProt P05231 30-212). Description: ELISA on IL-6.
For test [9], the target named is bovine serum albumin (BSA) (bovine, UniProt P02769 25-607). Description: ELISA.
Chain of bovine serum albumin (BSA) (P02769 25-607 limits assumed): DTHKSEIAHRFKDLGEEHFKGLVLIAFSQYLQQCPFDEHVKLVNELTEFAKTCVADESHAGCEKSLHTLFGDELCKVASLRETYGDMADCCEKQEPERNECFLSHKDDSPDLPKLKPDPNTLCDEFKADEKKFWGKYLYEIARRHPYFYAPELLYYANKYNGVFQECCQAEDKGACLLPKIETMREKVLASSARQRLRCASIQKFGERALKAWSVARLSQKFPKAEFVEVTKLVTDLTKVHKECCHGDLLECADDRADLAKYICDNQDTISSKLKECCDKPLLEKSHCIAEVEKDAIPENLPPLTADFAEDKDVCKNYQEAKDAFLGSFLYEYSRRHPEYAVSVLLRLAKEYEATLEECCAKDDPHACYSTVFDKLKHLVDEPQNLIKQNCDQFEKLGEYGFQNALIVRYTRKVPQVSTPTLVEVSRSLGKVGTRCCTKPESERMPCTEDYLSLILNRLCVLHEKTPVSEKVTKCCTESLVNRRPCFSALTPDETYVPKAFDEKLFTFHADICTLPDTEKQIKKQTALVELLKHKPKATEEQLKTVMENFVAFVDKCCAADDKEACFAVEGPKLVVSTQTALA
For test [10], the target named is T2, interleukin-11 (IL-11). Description: ELISA.
Test [11] deals with T3, interleukin-6 (IL-6). Description: cell-based or functional assay.
Test [12] addresses T3, interleukin-6 (IL-6). Put plainly: BLI (Octet), IL-6 immobilized on the biosensor.
Description: This method measures binding reactions at the surface of a fiber optic biosensor functionalized with an immobilized target moiety (e.g., IL-6).
For test [13], the target named is T3, interleukin-6 (IL-6). Description: cell-based or functional assay. This is another data set of the same source.
The target in test [14] is interleukin-6 (IL-6) (UniProt P05231). Put plainly: cell-based or functional assay. The source holds these as a separate data set.
Chain of interleukin-6 (IL-6) (UniProt P05231) (P05231 30-212 limits assumed): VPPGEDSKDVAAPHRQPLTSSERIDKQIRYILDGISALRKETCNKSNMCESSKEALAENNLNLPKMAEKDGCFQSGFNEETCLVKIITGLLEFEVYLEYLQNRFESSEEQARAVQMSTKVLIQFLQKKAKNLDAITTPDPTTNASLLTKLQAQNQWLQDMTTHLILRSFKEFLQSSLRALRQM
The target of test [15] is T3, interleukin-6 (IL-6). Put plainly: cell-based or functional assay. The source holds these as a separate data set.

For orientation: Kd means the equilibrium constant for the complex coming apart. A lower Kd goes with higher affinity. Broadly, the EC50 is the midpoint of the concentration-response curve. Read a low EC50 as higher potency in that assay. In the test with interleukin-6 (IL-6) [1], “Siltuximab Multabody (MB) (from UniProt P04945 1-108)” registered a Fold change (IgG vs. Multabody), IL-6 Bioassay IC50 of 26 fold; a Fold change, INA-6 proliferation IC50 (IgG against MB) of 9 fold; an IC50 (nM), proliferation of IL-6-dependent INA-6 cells (CellTiter-Glo) of 0.67 nM; an IC50 (pM), IL-6 Bioassay (luciferase reporter cells) of 44 pM. In addition, in the test with interleukin-6 (IL-6) [2], the Kd is < 0.001 nM. In addition, the EC50 with interleukin-6 (IL-6) [3] stood at 0.0353 nM.

B1: anti-IL-11 Multabody (MB), source antibody TPP-29536 (protein, part only; not given: Fab constants, linkers, ferritin carriers, not shown: another chain or arm of the molecule; a dimerising Fc or GST; large carriers; small tags and cut ends)
VH: EVQLLESGGGLVQPGGSLRLSCAASGFTFSSYGMHWVRQAPGKGLEWVAVISYDGSYKYYADSVKGRFTISRDNSKNTLYLQMNSLRAEDTAVYYCAAGVPDYWGQGTLVTVSS
VL: QSVLTQPPSASGTPGQRVTISCSGSSSNIGSDYDVHWYQQLPGTAPKLLIYSNEERPSGVPDRFSGSKSGTSASLAISGLRSEDEADYYCSAWDSSLSGPVFGGGTKLTVL
As to B1, in the test with interleukin-11 (IL-11) [4], the EC50 was 0.659 nM and the fold better binding than the parental IgG control fell in the range of 3 to 4 fold. Moreover, in the test with interleukin-11 (IL-11) [5], the Fold change, IL-11-dependent pSTAT3/STAT3 IC50 (IgG against MB), Panc-1 cells came out at 6 fold and the IC50 (nM), IL-11-dependent pSTAT3/STAT3 (Meso Scale Discovery), Panc-1 cells stood at 0.13 nM.

B2: TPP-29536 IgG (antibody, V domains shown)
VH: B1 VH
VL: B1 VL
notes: Tested as parental IgG; also called anti-IL-11 IgG; parental IgG control
On to B2, for which the “IC50 (nM), IL-11-dependent pSTAT3/STAT3 (Meso Scale Discovery), Panc-1 cells” value with interleukin-11 (IL-11) [6] amounted to 0.79 nM. Further, the EC50 with interleukin-11 (IL-11) [7] worked out at 2.71 nM.

B3: siltuximab immunoglobulin (IgG) (antibody, V domains shown)
VH: EVQLVESGGKLLKPGGSLKLSCAASGFTFSSFAMSWFRQSPEKRLEWVAEISSGGSYTYYPDTVTGRFTISRDNAKNTLYLEMSSLRSEDTAMYYCARGLWGYYALDYWGQGTSVTVSS
VL: QIVLIQSPAIMSASPGEKVTMTCSASSSVSYMYWYQQKPGSSPRLLIYDTSNLASGVPVRFSGSGSGTSYSLTISRMEAEDAATYYCQQWSGYPYTFGGGTKLEIKR
notes: Tested as parental IgG; also called siltuximab IgG; CNTO-328
In the test with interleukin-6 (IL-6) [8], B3 had an EC50 of 0.154 nM. In addition, the binding result (in test [9]; with interleukin-11 (IL-11) [10]) was “no binding” each time. The “IC50 (nM), proliferation of IL-6-dependent INA-6 cells (CellTiter-Glo)” value in the test with interleukin-6 (IL-6) [11] came out at 5.88 nM. Further, the Kd with interleukin-6 (IL-6) [12] was < 0.001 nM. In the test with interleukin-6 (IL-6) [13], the “IC50 (pM), IL-6 Bioassay (luciferase reporter cells)” value (from here on “IC50 (pM), IL-6 Bioassay”) was found to be 1150 pM.

B4: Clazakizumab Multabody (MB) (protein, part only; not given: Fab constants, linkers, ferritin carriers, not shown: another chain or arm of the molecule; a dimerising Fc or GST; large carriers; small tags and cut ends)
VH: EVQLVESGGGLVQPGGSLRLSCAASGFSLSNYYVTWVRQAPGKGLEWVGIIYGSDETAYATSAIGRFTISRDNSKNTLYLQMNSLRAEDTAVYYCARDDSSDWDAKFNLWGQGTLVTVSS
VL: AIQMTQSPSSLSASVGDRVTITCQASQSINNELSWYQQKPGKAPKLLIYRASTLASGVPSRFSGSGSGTDFTLTISSLQPDDFATYYCQQGYSLRNIDNAFGGGTKVEIK
In the test with interleukin-6 (IL-6) [14], B4 yielded a Fold change (IgG vs. Multabody), IL-6 Bioassay IC50 of 6 fold and an IC50 (pM), IL-6 Bioassay (luciferase reporter cells) of 100 pM. For the same molecule, in the test with interleukin-6 (IL-6) [2], the Kd is < 0.001 nM. Moreover, the EC50 in the test with interleukin-6 (IL-6) [3] came to 0.0543 nM.

B5: clazakizumab IgG (antibody, V domains shown)
VH: B4 VH
VL: AIQMTQSPSSLSASVGDRVTITCQASQSINNELSWYQQKPGKAPKLLIYRASTLASGVPSRFSGSGSGTDFTLTISSLQPDDFATYYCQQGYSLRNIDNAFGGGTKVEIKR
notes: Tested as parental IgG
B5: a half-maximal effect with interleukin-6 (IL-6) [8] (EC50) was put at 0.176 nM. Also, the binding result (in test [9]; with interleukin-11 (IL-11) [10]) was “no binding” in each case. For the same molecule, the Kd with interleukin-6 (IL-6) [12] was < 0.001 nM. The “IC50 (pM), IL-6 Bioassay” value in the test with interleukin-6 (IL-6) [13] was determined as 604 pM.

B6: Olokizumab Multabody (MB) (protein, part only; not given: Fab constants, linkers, ferritin carriers, not shown: another chain or arm of the molecule; a dimerising Fc or GST; large carriers; small tags and cut ends)
VH: EVQLVESGGGLVQPGGSLRLSCAASGFNFNDYFMNWVRQAPGKGLEWVAQMRNKNYQYGTYYAESLEGRFTISRDDSKNSLYLQMNSLKTEDTAVYYCARESYYGFTSYWGQGTLVTVSS
VL: DIQMTQSPSSLSASVGDRVTITCQASQDIGISLSWYQQKPGKAPKLLIYNANNLADGVPSRFSGSGSGTDFTLTISSLQPEDFATYYCLQHNSAPYTFGQGTKLEIK
As for B6, in the test with interleukin-6 (IL-6) [14], the Fold change (IgG vs. Multabody), IL-6 Bioassay IC50 came to 60 fold; the Fold change (IgG/MB), IL-6-induced pSTAT3/STAT3 IC50, HCT-15 cells is 7 fold; the Fold change (IgG/MB), IL-6-induced pSTAT3/STAT3 IC50, THP-1 cells came out at 8 fold; the Fold change, INA-6 proliferation IC50 (IgG against MB) was determined as 16 fold. In the test with interleukin-6 (IL-6) [14], this molecule displayed an IC50 (nM), IL-6-induced pSTAT3/STAT3 (Meso Scale Discovery), HCT-15 cells of 0.03 nM; an IC50 (nM), IL-6-induced pSTAT3/STAT3 (Meso Scale Discovery), THP-1 cells of 0.06 nM; an IC50 (nM), proliferation of IL-6-dependent INA-6 cells (CellTiter-Glo) of 0.33 nM; an IC50 (pM), IL-6 Bioassay (luciferase reporter cells) of 9.4 pM. In addition, the Kd with interleukin-6 (IL-6) [2] was < 0.001 nM. This molecule came in with an EC50 with interleukin-6 (IL-6) [3] of 0.0454 nM.

B7: olokizumab IgG (antibody, V domains shown)
VH: B6 VH
VL: DIQMTQSPSSLSASVGDRVTITCQASQDIGISLSWYQQKPGKAPKLLIYNANNLADGVPSRFSGSGSGTDFTLTISSLQPEDFATYYCLQHNSAPYTFGQGTKLEIKR
notes: Tested as parental IgG; also called CDP6038
B7 came in with an EC50 with interleukin-6 (IL-6) [8] of 0.201 nM. The binding result (in test [9]; in the test with interleukin-11 (IL-11) [10]) was “no binding” throughout. For the same molecule, the “IC50 (nM), proliferation of IL-6-dependent INA-6 cells (CellTiter-Glo)” value in the test with interleukin-6 (IL-6) [11] amounted to 5.29 nM. Besides, the “IC50 (nM), IL-6-induced pSTAT3/STAT3 (Meso Scale Discovery), HCT-15 cells” value with interleukin-6 (IL-6) [15] is 0.2 nM. For the same molecule, in the test with interleukin-6 (IL-6) [15], the “IC50 (nM), IL-6-induced pSTAT3/STAT3 (Meso Scale Discovery), THP-1 cells” value was determined as 0.48 nM. In addition, the Kd in the test with interleukin-6 (IL-6) [12] is < 0.001 nM. Besides, the “IC50 (pM), IL-6 Bioassay” value with interleukin-6 (IL-6) [13] was determined as 566 pM.
